Blank lines part the entries; values can stand above or below the compound they belong to. Positions of bridges follow the written chain, without caps; N, C: chain ends. Residues, ends and D or L forms follow the SMILES beside them.
Key:
[1] = test system: IGFBP-1; assay: BIACORE kinetics: IGFBP-1 binding to immobilized IGF-1 variants; set-up: species or system human; details: from relative KD values
Procedure: (§1) The binding affinities of the IGF variants for IGFBP-1 and IGFBP-3 were determined using a BIACORE™-2000 real time kinetic interaction analysis system (Biacore, Inc., Piscataway, N.J.) to measure association (ka) and dissociation (kd) rates. Carboxymethylated dextran biosensor chips (CM5, BIAcore Inc.) were activated with EDC (N-ethyl-N′-(3-dimethylaminopropyl)-carbodiimide hydrochloride) and NHS(N-hydroxysuccinimide) according to the supplier's instructions. For immobilization, IGF mutants in 20 mM sodium acetate, pH 4.8, were injected onto the biosensor chip at a concentration of 50 μg/ml to yield approximately 450-600 RU's (resonance-responce units) of covalently-coupled protein. Unreacted groups were blocked with an injection of 1 M ethanolamine. Kinetic measurements were carried out by injecting two-fold serial dilutions (starting at 1 μM) of either IGFBP-1 or IGFBP-3 in running buffer (PBS, 0.05% TWEEN 20™, 0.1% ovalbumin, 0.1% sodium azide) at 25 °C using a flow rate of 20 μl/min. Association rates (ka) and dissociation rates (kd) were calculated separately using a 1:1 Langmuir™ association model in the BIACORE™ evaluation software v. 3.0. The equilibrium dissociation constant (KD) was calculated as kd/ka.
(§2) For measurements of IGFBP-1 binding to IGF-1, kinetics experiments were conducted using a single-cysteine IGF-1 variant, Y31C, that was immobilized onto the sensor chip surface via a disulfide linkage (BIACORE™ System Manual Supplement, 5a-1, Pharmacia (1991)).

[2] = biological target: T1, IGFBP-3 (Homo sapiens, UniProt P17936); assay: BIACORE kinetics: IGFBP-3 binding to immobilized IGF-1 variants; details: for Binding to IGFBP-3 ka: 25 C
T1 construct: made in house
T1 sequence (P17936 28-291): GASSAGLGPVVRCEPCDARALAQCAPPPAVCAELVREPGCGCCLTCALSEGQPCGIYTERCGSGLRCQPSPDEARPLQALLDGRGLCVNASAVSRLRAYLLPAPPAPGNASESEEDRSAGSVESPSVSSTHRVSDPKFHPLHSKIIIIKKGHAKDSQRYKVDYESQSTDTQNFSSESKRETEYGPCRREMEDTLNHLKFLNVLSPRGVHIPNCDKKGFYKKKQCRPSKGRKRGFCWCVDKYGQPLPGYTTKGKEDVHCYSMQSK
Procedure: as §1

[3] = biological target: T2, IGFBP-1 (Homo sapiens, UniProt P08833); assay: BIACORE kinetics: IGFBP-1 binding to immobilized IGF-1 variants; set-up: made in house; host or cells: CHO cells; details: for Binding to IGFBP-1 ka: 25 C
T2 sequence (P08833 26-259): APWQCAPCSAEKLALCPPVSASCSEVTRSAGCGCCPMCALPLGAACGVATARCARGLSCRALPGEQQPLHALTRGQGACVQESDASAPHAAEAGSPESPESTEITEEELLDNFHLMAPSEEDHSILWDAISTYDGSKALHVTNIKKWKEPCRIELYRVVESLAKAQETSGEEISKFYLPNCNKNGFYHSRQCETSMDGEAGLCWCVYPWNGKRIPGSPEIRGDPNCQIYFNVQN
Procedure: as §1, §2

[4] = test system: human articular cartilage explants; assay: human articular cartilage explants from diseased joints: matrix synthesis (35S-sulfate uptake); type: cell-based; details: 40 ng/ml
Procedure: The metacarpophalangeal joint of a six-month old pig was cultured as described above for bovine articular cartilage in Example 8. This explant was cultured in media alone or in media with D12K, D12R, or wild-type IGF-1 (at 10 nM) alone or in the presence of IL-1α at 1 ng/ml, as described above. Human explants were from patients undergoing joint replacement surgery. Articular cartilage was harvested, aliquoted (40-45 mg/tube) and cultured as above. […] Fresh media was added on days 0, 1, 2, and 3. Matrix breakdown was determined by measuring the amount of proteoglycans in the media using the DMMB assay as set forth above. Matrix (proteoglycan) synthesis was determined by measuring ^35S-sulfate uptake as set forth above.
Human articular cartilage explants were cultured in media or treated with IGF-1 by itself or in combination with either BP3-40 or BP3-15 at 0.1 mg/ml as set forth above. Matrix breakdown was determined by measuring the release of proteoglycans into media as described above. Matrix synthesis was determined by counting the amount of ^35S-sulfate incorporated into the cartilage tissue as described above.
The same Material and Methods (for human tissue) were used as described above, using articular cartilage explants from human joints removed from patients undergoing joint replacement. These explants were cultured with IGF-1 alone at 40 ng/ml, or IGF-1 with BP1-17, BP3-15, or BP1-16 (0.1 mg/ml), or IGF-1 with buffer (HEPES).

[5] = biological target: T2, IGFBP-1; assay: BIAcore direct binding kinetics of peptides on immobilized IGFBP-1; set-up: made in house; host or cells: CHO cells; details: koff/kon, BIAcore kinetics; read-out: KD ± (SD or SE)
Description: WO 98/45427 published Oct. 15, 1998 discloses the preparation and characterization of the IGFBP-1 displacer peptide BP1-01 ([…]) (SEQ ID NO:26). The kinetics of BP1-01 peptide variants were examined in a BIAcore™ (BIAcore, Inc., Piscataway, N.J.) assay using IGFBP-1 covalently coupled via EDC/NHS (as described by the manufacturer) to a dextran chip. […] The latter implies a half-life for peptide dissociation from IGFBP-1 of approximately 28 sec. The association rate constant is moderately fast, consistent with the notion that the peptide may not undergo significant conformation change upon binding to IGFBP-1.
Inhibition assays for measuring relative potencies of peptides for inhibiting IGFBP-1 binding to IGF-I have been described (e.g., WO 98/45427, supra). Peptides described herein were of sufficient binding affinity to allow for direct measurement of binding affinities by surface plasmon resonance (SPR) using a BIACORE™ system. The direct binding kinetics of IGFBP-1 peptides were measured by injecting a series of 2-fold diluted peptides in running buffer (0.05% TWEEN 20™ in PBS) over a carboxy-methyl (CM) biosensor chip coupled with about 590-1000 RU of IGFBP-1 at a flow rate of 50 μl/min on a BIACORE 2000™ or BIACORE 3000™ surface-plasmon-resonance instrument. The immobilization of IGFBP-1 was performed through EDC/NHS chemistry as described by the manufacturer. Peptides were also injected through a flow cell containing IGFBP-3 as background control. Since the off-rate for most of the peptides is relatively fast (in the range of 2×10^−2 s^−1), off-rate measurement was set for 30 minutes. This allowed for regeneration of IGFBP-1 on the chip by simple dissociation, rather than by addition of eluent. For each dilution of peptides, a global fit of the sensorgram data was performed using a 1:1 Langmuir binding model.

[6] = test system: IGFBP-1; assay: competitive phage ELISA of IGF-1 mutants, IGFBP-1; type: binding, human; details: relative IC50 IGFBP-1/relative IC50 IGFBP-3
Procedure: An alanine-scanning mutagenesis approach (Cunningham and Wells, Science, 244: 1081-1085 (1989); U.S. Pat. No. 5,834,250) was used to remove that portion of each side chain of IGF-1 beyond the beta carbon. The contribution of these atoms to the free energy of binding of the IGF-1 analog to IGFBP-1 or to IGFBP-3 was then assessed by competitive phage ELISA. In this assay, IGFBP-1 or IGFBP-3 is used to inhibit IGF-phage mutants from binding to an IGFBP-1- or IGFBP-3-coated immunosorbant plate.
Immunosorbent plates (Nunc, MAXISORP™, 96 wells) were coated with 100 μl/well of 1 μg/ml IGFBP-1 or IGFBP-3 in PBS buffer pH 7.2 at 4° C. overnight. The plates were then blocked with 0.5% TWEEN 20™/PBS (also used as binding buffer) for 2 hours at room temperature (proteinaceous blocking agents like bovine serum albumin were avoided to prevent potential IGF or IGFBP contamination). E. coli cells (XL1-Blue, Stratagene) freshly transformed with phagemid vector were grown overnight in 5 mL 2YT medium (Sambrook et al., supra) in the presence of M13-VCS helper phage (Stratagene). Phage particles were harvested and resuspended in PBS buffer as described in Lowman, H. B., “Phage Display of Peptide Libraries on Protein Scaffolds,” in Cabilly, S. (ed.), Combinatorial Peptide Library Protocols (Humana Press Inc.: Totowa, N.J., 1998), pp. 249-264. Then phage concentrations were normalized to yield a maximal ELISA signal of 0.2-0.4 for each mutant (Lowman, in Cabilly, S. (ed.), supra). Threefold serial dilutions of soluble competitor were prepared on non-absorbent microtiter plates (Nunc, F, 96 wells) with binding buffer (0.5% TWEEN 20™/PBS) containing phage at the previously determined concentrations. The dilution range of competitor protein extended over six orders of magnitude, starting at 5 μM for IGFBP-1 and 500 nM for IGFBP-3. After blocking, the plates containing immobilized target were washed with 0.05% TWEEN™/PBS buffer and subsequently incubated with 80 μl/well of the premixed phage-competitor solutions for 1 hour at room temperature. After washing, bound phage was detected with 80 μl/well of a solution containing a primary rabbit anti-phage polyclonal antibody and a secondary goat anti-rabbit monoclonal antibody-horseradish peroxidase conjugate in 0.5% TWEEN 20™/PBS. o-Phenylenediamine (Sigma) and tetramethylbenzidine (Kirkegaard and Perry) were used as chromogenic substrates, resulting in product detection at 492 and 450 nm, respectively. IC50 values were determined by fitting the binding data to a generic saturation curve (Lowman, in Cabilly, S. (ed.), supra). At least two individual clones of each IGF-1 mutant were assayed. Numbers in Table XIII represent mean±standard deviation of individually assessed IC50 values.

- Specificity Relative BP-1 / Relative BP-3 [1]: 0.7
- Binding to IGFBP-3 ka [2]: 2.7 ± 0.2 ×10^5 M^−1s^−1
- Binding to IGFBP-3 KD ([2]; kd/ka): wild-type kinetics
- Binding to IGFBP-1 ka [3]: 3.1 ± 0.2 ×10^4 M^−1s^−1
- Binding to IGFBP-1 KD ([3]; kd/ka): wild-type kinetics
Compound: P39A: IGF-1 single alanine mutant

- IGFBP-3 ka ([2]; Table XV): 0.4 ± 0.1 ×10^5 M^−1
- IGFBP-3 kd ([2]; Table XV): 38.6 ± 2.7 ×10^−4 s^−1
Compound: F16A/F49A: double mutant of IGF-1, F16A and F49A
- matrix synthesis in diseased human articular cartilage [4]: stimulated matrix synthesis in diseased human articular cartilage

- Kd [5]: 33 ± 15 nM
Compound: CC(C)C[C@@H]1NC(=O)[C@H](Cc2c[nH]c3ccccc23)NC(=O)[C@H](CCC(N)=O)NC(=O)[C@H](CC(C)C)NC(=O)[C@@H]2CCCN2C(=O)CNC(=O)[C@H](C)NC(=O)[C@H](CCCNC(=N)N)NC(=O)[C@@H](NC(=O)[C@@H](NC(=O)[C@H](CCCNC(=N)N)NC(=O)[C@H](C)NC(=O)[C@@H](N)CCC(=O)O)C(C)C)CSSC[C@@H](C(=O)N[C@@H](CCC(=O)O)C(=O)N[C@@H](CCCCN)C(=O)N[C@@H](Cc2ccc(O)cc2)C(=O)N[C@@H](Cc2ccccc2)C(N)=O)NC1=O [BP1-20] (H-EARVCRAGPLQWLCEKYF-NH2; disulfide 5-14; N-terminus assumed)

- Specificity Relative BP-1 / Relative BP-3 [1]: 0.7
- Binding to IGFBP-3 ka [2]: 2.9 ± 0.8 ×10^5 M^−1s^−1
- Binding to IGFBP-1 ka [3]: 3.2 ± 0.2 ×10^4 M^−1s^−1
Compound: G1S-A70V: IGF-1 double mutant, first and last amino acids changed; template for alanine scan
- relative specificity [6]: 1.0

Source: patent US7423017B2, “Method for treating cartilage disorders” (Genentech, Inc., priority 1997, dated 2008)
